According to patent publication US20260256915A1 (published 2026):

B1: nwTCR-2555 (TCR, V domains shown)
Valpha: AQSVSQHNHHVILSEAASLELGCNYSYGGTVNLFWYVQYPGQHLQLLLKYFSGDPLVKGIKGFEAEFIKSKFSFNLRKPSVQWSDTAEYFCAVKMDSSYKLIFGSGTRLLVRP
Vbeta: DGGITQSPKYLFRKEGQNVTLSCEQNLNHDAMYWYRQDPGQGLRLIYYSQIVNDFQKGDIAEGYSVSREKKESFPLTVTSAQKNPTAFYLCASLGLNYNEQFFGPGTRLTVL
B2: nwTCR-2583 (TCR, V domains shown)
Valpha: GQSLEQPSEVTAVEGAIVQINCTYQTSGFYGLSWYQQHDGGAPTFLSYNALDGLEETGRFSSFLSRSDSYGYLLLQELQMKDSASYFCALGTEDKIIFGKGTRLHILP
Vbeta: EAQVTQNPRYLITVTGKKLTVTCSQNMNHEYMSWYRQDPGLGLRQIYYSMNVEVTDKGDVPEGYKVSRKEKRNFPLILESPSPNQTSLYFCASRISLGANYGYTFGSGTRLTVV
B3: nwTCR-2614 (TCR, V domains shown)
Valpha: AQTVTQSQPEMSVQEAETVTLSCTYDTSENNYYLFWYKQPPSRQMILVIRQEAYKQQNATENRFSVNFQKAAKSFSLKISDSQLGDTAMYFCAFDNNARLMFGDGTQLVVKP
Vbeta: GAVVSQHPSWVICKSGTSVKIECRSLDFQATTMFWYRQFPKQSLMLMATSNEGSKATYEQGVEKDKFLINHASLTLSTLTVTSAHPEDSSFYICSATRDSSYNEQFFGPGTRLTVL
B4: nwTCR-2718 (TCR, V domains shown)
Valpha: GQQLNQSPQSMFIQEGEDVSMNCTSSSIFNTWLWYKQDPGEGPVLLIALYKAGELTSNGRLTAQFGITRKDSFLNISASIPSDVGIYFCAGFSQGGSEKLVFGKGTKLTVNP
Vbeta: DSGVTQTPKHLITATGQRVTLRCSPRSGDLSVYWYQQSLDQGLQFLIQYYNGEERAKGNILERFSAQQFPDLHSELNLSSLELGDSALYFCASSPWTAGGNTIYFGEGSWLTVV
B5: nwTCR-2719 (TCR, V domains shown)
Valpha: GIQVEQSPPDLILQEGANSTLRCNFSDSVNNLQWFHQNPWGQLINLFYIPSGTKQNGRLSATTVATERYSLLYISSSQTTDSGVYFCAVLAPGTYKYIFGTGTRLKVLA
Vbeta: EAQVTQNPRYLITVTGKKLTVTCSQNMNHEYMSWYRQDPGLGLRQIYYSMNVEVTDKGDVPEGYKVSRKEKRNFPLILESPSPNQTSLYFCASSWGSGYEQYFGPGTRLTVT
B6: nwTCR-2720 (TCR, V domains shown)
Valpha: SQQGEEDPQALSIQEGENATMNCSYKTSINNLQWYRQNSGRGLVHLILIRSNEREKHSGRLRVTLDTSKKSSSLLITASRAADTASYFCATDLSGAGSYQLTFGKGTKLSVIP
Vbeta: EAQVTQNPRYLITVTGKKLTVTCSQNMNHEYMSWYRQDPGLGLRQIYYSMNVEVTDKGDVPEGYKVSRKEKRNFPLILESPSPNQTSLYFCASSLGTGFGELFFGEGSRLTVL
B7: nwTCR-2793 (TCR, V domains shown)
Valpha: QKEVEQNSGPLSVPEGAIASLNCTYSDRVSQSFFWYRQYSGKSPELIMSIYSNGDKEDGRFTAQLNKASQYVSLLIRDSQPSDSATYLCAVVSSNDYKLSFGAGTTVTVRA
Vbeta: EAQVTQNPRYLITVTGKKLTVTCSQNMNHEYMSWYRQDPGLGLRQIYYSMNVEVTDKGDVPEGYKVSRKEKRNFPLILESPSPNQTSLYFCASSPGTIGELFFGEGSRLTVL
B8: nwTCR-2915 (TCR, V domains shown)
Valpha: GESVGLHLPTLSVQEGDNSIINCAYSNSASDYFIWYKQESGKGPQFIIDIRSNMDKRQGQRVTVLLNKTVKHLSLQIAATQPGDSAVYFCAESYGQKLLFARGTMLKVDL
Vbeta: EAQVTQNPRYLITVTGKKLTVTCSQNMNHEYMSWYRQDPGLGLRQIYYSMNVEVTDKGDVPEGYKVSRKEKRNFPLILESPSPNQTSLYFCASSFWSAGELFFGEGSRLTVL
B9: nwTCR-2916 (TCR, V domains shown)
Valpha: GQQLNQSPQSMFIQEGEDVSMNCTSSSIFNTWLWYKQDPGEGPVLLIALYKAGELTSNGRLTAQFGITRKDSFLNISASIPSDVGIYFCAGQDDGGSQGNLIFGKGTKLSVKP
Vbeta: DSGVTQTPKHLITATGQRVTLRCSPRSGDLSVYWYQQSLDQGLQFLIQYYNGEERAKGNILERFSAQQFPDLHSELNLSSLELGDSALYFCASSPWTSGGDGELFFGEGSRLTVL
B10: nwTCR-2970 (TCR, V domains shown)
Valpha: QQPVQSPQAVILREGEDAVINCSSSKALYSVHWYRQKHGEAPVFLMILLKGGEQKGHDKISASFNEKKQQSSLYLTASQLSYSGTYFCGTEFRNDYKLSFGAGTTVTVRA
Vbeta: EAQVTQNPRYLITVTGKKLTVTCSQNMNHEYMSWYRQDPGLGLRQIYYSMNVEVTDKGDVPEGYKVSRKEKRNFPLILESPSPNQTSLYFCASSPGTGGYGYTFGSGTRLTVV
B11: nwTCR-3028 (TCR, V domains shown)
Valpha: SQQGEEDPQALSIQEGENATMNCSYKTSINNLQWYRQNSGRGLVHLILIRSNEREKHSGRLRVTLDTSKKSSSLLITASRAADTASYFCATDVKSSYKLIFGSGTRLLVRP
Vbeta: AAGVIQSPRHLIKEKRETATLKCYPIPRHDTVYWYQQGPGQDPQFLISFYEKMQSDKGSIPDRFSAQQFSDYHSELNMSSLELGDSALYFCASSLGLLGNEQFFGPGTRLTVL
B12: nwTCR-3095 (TCR, V domains shown)
Valpha: DQQVKQNSPSLSVQEGRISILNCDYTNSMFDYFLWYKKYPAEGPTFLISISSIKDKNEDGRFTVFLNKSAKHLSLHIVPSQPGDSAVYFCAAFASDSNYQLIWGAGTKLIIKP
Vbeta: DTAVSQTPKYLVTQMGNDKSIKCEQNLGHDTMYWYKQDSKKFLKIMFSYNNKELIINETVPNRFSPKSPDKAHLNLHINSLELGDSAVYFCASSPWTSGGNGELFFGEGSRLTVL
B13: nwTCR-3125 (TCR, V domains shown)
Valpha: QKEVEQNSGPLSVPEGAIASLNCTYSDRVSQSFFWYRQYSGKSPELIMSIYSNGDKEDGRFTAQLNKASQYVSLLIRDSQPSDSATYLCALVSGTYKYIFGTGTRLKVLA
Vbeta: DTAVSQTPKYLVTQMGNDKSIKCEQNLGHDTMYWYKQDSKKFLKIMFSYNNKELIINETVPNRFSPKSPDKAHLNLHINSLELGDSAVYFCASSPGLAYEQYFGPGTRLTVT
B14: nwTCR-3173 (TCR, V domains shown)
Valpha: SQQGEEDPQALSIQEGENATMNCSYKTSINNLQWYRQNSGRGLVHLILIRSNEREKHSGRLRVTLDTSKKSSSLLITASRAADTASYFCATYANDYKLSFGAGTTVTVRA
Vbeta: EAQVTQNPRYLITVTGKKLTVTCSQNMNHEYMSWYRQDPGLGLRQIYYSMNVEVTDKGDVPEGYKVSRKEKRNFPLILESPSPNQTSLYFCASSAGTGGFVGYTFGSGTRLTVV
B15: nwTCR-3271 (TCR, V domains shown)
Valpha: DQQVKQNSPSLSVQEGRISILNCDYTNSMFDYFLWYKKYPAEGPTFLISISSIKDKNEDGRFTVFLNKSAKHLSLHIVPSQPGDSAVYFCAAKPDKLIFGTGTRLQVFP
Vbeta: SAVISQKPSRDICQRGTSLTIQCQVDSQVTMMFWYRQQPGQSLTLIATANQGSEATYESGFVIDKFPISRPNLTFSTLTVSNMSPEDSSIYLCSVWGAGLAIYNEQFFGPGTRLTVL
B16: nwTCR-3272 (TCR, V domains shown)
Valpha: QKEVEQNSGPLSVPEGAIASLNCTYSDRGSQSFFWYRQYSGKSPELIMSIYSNGDKEDGRFTAQLNKASQYVSLLIRDSQPSDSATYLCAVPSGNMLTFGGGTRLMVKP
Vbeta: DVKVTQSSRYLVKRTGEKVFLECVQDMDHENMFWYRQDPGLGLRLIYFSYDVKMKEKGDIPEGYSVSREKKERFSLILESASTNQTSMYLCASSSATSGSGEQYFGPGTRLTVT
B17: nwTCR-3273 (TCR, V domains shown)
Valpha: SQELEQSPQSLIVQEGKNLTINCTSSKTLYGLYWYKQKYGEGLIFLMMLQKGGEEKSHEKITAKLDEKKQQSSLHITASQPSHAGIYLCGAVPINDYKLSFGAGTTVTVRA
Vbeta: EAQVTQNPRYLITVTGKKLTVTCSQNMNHEYMSWYRQDPGLGLRQIYYSMNVEVTDKGDVPEGYKVSRKEKRNFPLILESPSPNQTSLYFCASSIDSGSSYNEQFFGPGTRLTVL
B18: nwTCR-3274 (TCR, V domains shown)
Valpha: QKEVEQNSGPLSVPEGAIASLNCTYSDRGSQSFFWYRQYSGKSPELIMSIYSNGDKEDGRFTAQLNKASQYVSLLIRDSQPSDSATYLCAVVSGGYNKLIFGAGTRLAVHP
Vbeta: EPEVTQTPSHQVTQMGQEVILRCVPISNHLYFYWYRQILGQKVEFLVSFYNNEISEKSEIFDDQFSVERPDGSNFTLKIRSTKLEDSAMYFCASSEGWGGTEAFFGQGTRLTVV

Target: T1, PRAME peptide on HLA-A*02:01 (human)
T1 peptide: SLLQHLIGL
Experiment: multimer staining

Binding result, recognises:
B1
B2
B3
B4
B5
B6
B7
B8
B9
B10
B11
B12
B13
B14
B15
B16
B17
B18
